Test results published in patent publication US20220064250A1 (AKSTON BIOSCIENCES, published 2022).
Substitutions are numbered along the chain they refer to.

B1: insulin-Fc fusion protein of SEQ ID NO: 45 (insulin polypeptide SEQ ID NO: 16, linker SEQ ID NO: 25, canine IgGD Fc fragment SEQ ID NO: 31) (Fc fusion)
chain: FVNQHLCGSDLVEALALVCGERGFFYTDPTGGGPRRGIVEQCCHSICSLYQLENYCNGGGGAGGGGCISPCPVPESLGGPSVFIFPPKPKDILRITRTPEITCVVLDLGREDPEVQISWFVDGKEVHTAKTQPREQQFNSTYRVVSVLPIEHQDWLTGKEFKCRVNHIGLPSPIERTISKARGQAHQPSVYVLPPSPKELSSSDTVTLTCLIKDFFPPEIDVEWQSNGQPEPESKYHTTAPQLDEDGSYFLYSKLSVDKSRWQQGDTFTCAVMHEALQNHYTDLSLSHSPG
notes: Homodimer made in HEK293 cells; the preparation was highly aggregated (12% homodimer)
B2: insulin-Fc fusion protein of SEQ ID NO: 51 (insulin polypeptide SEQ ID NO: 16, linker SEQ ID NO: 25, canine IgGB Fc fragment with des hinge D and cNg-K, i.e. … (Fc fusion)
chain: FVNQHLCGSDLVEALALVCGERGFFYTDPTGGGPRRGIVEQCCHSICSLYQLENYCNGGGGAGGGGCPKCPAPEMLGGPSVFIFPPKPKDTLLIARTPEVTCVVVDLDPEDPEVQISWFVDGKQMQTAKTQPREEQFKGTYRVVSVLPIGHQDWLKGKQFTCKVNNKALPSPIERTISKARGQAHQPSVYVLPPSREELSKNTVSLTCLIKDFFPPDIDVEWQSNGQQEPESKYRTTPPQLDEDGSYFLYSKLSVDKSRWQRGDTFICAVMHEALHNHYTQESLSHSPG
notes: Non-glycosylated homodimer made in HEK293 cells; also called cNg-NB138-K
B3: insulin-Fc fusion protein of SEQ ID NO: 41 (insulin polypeptide SEQ ID NO: 16, linker SEQ ID NO: 25, canine IgGB Fc fragment SEQ ID NO: 29) (Fc fusion)
chain: FVNQHLCGSDLVEALALVCGERGFFYTDPTGGGPRRGIVEQCCHSICSLYQLENYCNGGGGAGGGGDCPKCPAPEMLGGPSVFIFPPKPKDTLLIARTPEVTCVVVDLDPEDPEVQISWFVDGKQMQTAKTQPREEQFNGTYRVVSVLPIGHQDWLKGKQFTCKVNNKALPSPIERTISKARGQAHQPSVYVLPPSREELSKNTVSLTCLIKDFFPPDIDVEWQSNGQQEPESKYRTTPPQLDEDGSYFLYSKLSVDKSRWQRGDTFICAVMHEALHNHYTQESLSHSPG
notes: Disulfide-linked homodimer made in HEK293 cells; 93% homodimer; native cNg glycosylation site kept
B4: insulin-Fc fusion protein of SEQ ID NO: 47 (insulin polypeptide SEQ ID NO: 16, linker SEQ ID NO: 25, canine IgGB Fc fragment with cNg-S) (Fc fusion)
chain: B3 chain with N139S
notes: Non-glycosylated homodimer made in HEK293 cells; also called cNg-NB139-S
B5: insulin-Fc fusion protein of SEQ ID NO: 33 (insulin polypeptide SEQ ID NO: 16, linker SEQ ID NO: 25, canine IgGA Fc fragment SEQ ID NO: 28) (Fc fusion)
chain: FVNQHLCGSDLVEALALVCGERGFFYTDPTGGGPRRGIVEQCCHSICSLYQLENYCNGGGGAGGGGRCTDTPPCPVPEPLGGPSVLIFPPKPKDILRITRTPEVTCVVLDLGREDPEVQISWFVDGKEVHTAKTQSREQQFNGTYRVVSVLPIEHQDWLTGKEFKCRVNHIDLPSPIERTISKARGRAHKPSVYVLPPSPKELSSSDTVSITCLIKDFYPPDIDVEWQSNGQQEPERKHRMTPPQLDEDGSYFLYSKLSVDKSRWQQGDPFTCAVMHETLQNHYTDLSLSHSPG
notes: Disulfide-linked homodimer made in HEK293 cells; the preparation was only 24% homodimer (highly aggregated)

Tests used:
[1] = biological target: T1, human insulin receptor on human IM-9 cells (human, UniProt P06213 28-1382); assay: IM-9 cells, competition with biotinylated RHI, flow cytometry, 4 C (Table 3, same data as Table 7)
T1 construct: whole, on cells; Endogenous receptor on IM-9 cells; assay run at 4 C; also called IR
T1 sequence (P06213 28-1382): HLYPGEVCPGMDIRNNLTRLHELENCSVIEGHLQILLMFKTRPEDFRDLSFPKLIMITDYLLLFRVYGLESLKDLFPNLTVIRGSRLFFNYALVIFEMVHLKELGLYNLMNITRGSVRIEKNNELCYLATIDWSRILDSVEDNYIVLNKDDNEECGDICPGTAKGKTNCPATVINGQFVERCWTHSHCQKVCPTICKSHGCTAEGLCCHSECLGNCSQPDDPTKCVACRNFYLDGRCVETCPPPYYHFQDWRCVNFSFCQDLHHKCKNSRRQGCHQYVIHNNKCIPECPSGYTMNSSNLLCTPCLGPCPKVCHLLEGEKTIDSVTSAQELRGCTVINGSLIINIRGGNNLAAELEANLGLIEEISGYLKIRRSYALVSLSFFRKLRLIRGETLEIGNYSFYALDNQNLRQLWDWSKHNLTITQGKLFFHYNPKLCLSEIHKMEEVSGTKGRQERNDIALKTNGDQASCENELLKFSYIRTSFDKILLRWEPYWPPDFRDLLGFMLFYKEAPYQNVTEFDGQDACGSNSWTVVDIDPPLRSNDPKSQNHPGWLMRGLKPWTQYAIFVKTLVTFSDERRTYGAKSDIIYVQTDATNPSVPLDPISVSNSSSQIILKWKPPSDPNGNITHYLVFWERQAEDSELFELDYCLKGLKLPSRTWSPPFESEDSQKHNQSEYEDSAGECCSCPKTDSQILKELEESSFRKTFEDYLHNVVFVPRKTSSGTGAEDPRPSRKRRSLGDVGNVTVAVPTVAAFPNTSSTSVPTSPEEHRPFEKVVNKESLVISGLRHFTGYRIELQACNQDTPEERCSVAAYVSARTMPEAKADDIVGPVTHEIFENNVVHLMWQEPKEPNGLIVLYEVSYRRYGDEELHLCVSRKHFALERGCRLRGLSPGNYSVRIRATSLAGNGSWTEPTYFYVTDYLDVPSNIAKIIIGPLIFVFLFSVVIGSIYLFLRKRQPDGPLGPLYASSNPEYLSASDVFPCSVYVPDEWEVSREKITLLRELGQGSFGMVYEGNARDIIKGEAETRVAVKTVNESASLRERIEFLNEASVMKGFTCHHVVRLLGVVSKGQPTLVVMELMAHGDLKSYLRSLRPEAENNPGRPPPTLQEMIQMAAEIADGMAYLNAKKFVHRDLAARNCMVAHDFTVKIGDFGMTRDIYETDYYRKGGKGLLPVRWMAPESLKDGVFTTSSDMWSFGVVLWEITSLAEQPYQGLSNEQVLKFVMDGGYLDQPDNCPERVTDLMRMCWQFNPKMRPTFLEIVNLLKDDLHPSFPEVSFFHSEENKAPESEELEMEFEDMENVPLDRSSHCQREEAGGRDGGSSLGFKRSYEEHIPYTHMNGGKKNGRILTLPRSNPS
Experimental: (§1) 40 μL of an IM-9 cell suspension (8×10^6 cells/mL) was then added to each well by multichannel pipette, mixed again gently and incubated on ice for 30 min to allow competitive binding on the insulin receptor on IM-9 cells. Cells were then washed twice with 275 μL of ice-cold FACS wash buffer (HBSS/2 mM EDTA/0.1% Na-azide+0.5% horse serum) by centrifuging the V-bottom plate at 3000 rpm for 3 min and aspirating the supernatant. Cells were then resuspended in 40 μL of FACS staining medium containing 1:100 diluted Streptavidin-PE (Life Technologies) for 20 min on ice. Cells were then washed once with 275 μL of ice-cold FACS buffer and finally fixed with 3% paraformaldehyde for 10 min at room temp. Cells were then washed once with 275 μL of ice-cold FACS buffer and resuspended in 250 μl of FACS buffer for analysis.
The V-bottom plates containing cells were then analyzed on a Guava 8-HT flow cytometer (Millipore). Biotinylated-RHI binding to insulin receptor was quantitated by the median fluorescence intensity (MFI) of the cells on the FACS FL-2 channel for each concentration of the test compound. Control wells were labeled only with biotinylated-RHI and were used to calculate the percent (%) inhibition resulting from each test compound concentration. The % inhibition by test compounds of biotinylated-RHI binding on IM-9 cells was plotted against log concentrations of the test compound, and the resulting IC50 values were calculated using GraphPad Prism (GraphPad Software, La Jolla, Calif.) for the test compounds. Lower IC50 values of the test compound therefore indicate greater levels of biotinylated-RHI inhibition at lower concentrations indicating stronger binding of the insulin-Fc fusion protein to the insulin receptor. A control compound, such as unlabeled recombinant human insulin (RHI) was also used as an internal standard to generate an RHI IC50 against which a given compound IC50 could be ratioed (IC50(compound)/IC50(RHI)). […]

[2] = biological target: T1, human insulin receptor on human IM-9 …; assay: IM-9 cells, competition with biotinylated RHI, flow cytometry, 4 C (Table 5, same data as Table 9)
Experimental: (§2) Cultures of IM-9 cells were centrifuged at 250×g (˜1000 rpm) for 10 min to pellet the cells. Cells were washed once with HBSS or PBS buffer, resuspended in cold FACS staining medium (HBSS/2 mM EDTA/0.1% Na-azide+4% horse serum) to a concentration of 8×10^6 cells/mL and kept on ice or 4° C. until test solutions were made. The insulin-Fc protein was diluted in FACS buffer in 1:3 serial dilutions as 2× concentrations in 1.2 mL tubes (approx. 60 μL volume of each dilution), and the solutions were kept cold on ice until ready for pipetting.
(§3) Biotinylated-RHI was diluted in FACS staining medium to a concentration of 1.25 μg/mL. 40 μL of the serially diluted test compound and 8 μL of 1.25 μg/mL Biotin-RHI were added into each well of a V bottom microtiter plate, mixed by slow vortexing, and placed on ice. […]
(§4) The V-bottom plates containing cells were then analyzed on a Guava 8-HT flow cytometer (Millipore). Biotinylated-RHI binding to insulin receptor was quantitated by the median fluorescence intensity (MFI) of the cells on the FACS FL-2 channel for each concentration of the test compound. […] The % inhibition by test compounds of biotinylated-RHI binding on IM-9 cells was plotted against log concentrations of the test compound, and the resulting IC50 values were calculated using GraphPad Prism (GraphPad Software, La Jolla, Calif.) for the test compounds.

[3] = biological target: T1, human insulin receptor on human IM-9 …; assay: IM-9 cells, competition with biotinylated RHI, flow cytometry, 4 C
Experimental: as §2, §3, §4

[4] = biological target: T1, human insulin receptor on human IM-9 …; assay: as above; remark: listed apart in the source
Experimental: as §1
as §4, with “compounds. […]” for “compounds.”

Row | Binder | IC50 [1] [nM] | IC50 [2] [nM] | IC50 [3] [nM] | IC50 [4] [nM]
1 | B1 | > 5000 |  |  | 
2 | B2 |  | 147 | 147 | 
3 | B3 | 28 |  |  | 28
4 | B4 |  | 145 | 145 | 
5 | B5 | 2730 |  |  | 2730
